Results taken from patent US20100129383A1 (GOVERNORS OF THE UNIVERSITY OF ALBERTA, published 2010).

Target: T1, DEC-205 receptor on DC 2.4 cells (mouse) (mouse, UniProt Q60767 28-1723)
T1 construct: whole, on cells; also called CD205
Assay: competition cell ELISA on DC 2.4 cells; competitor bfFp (WET7) pre-bound

B1: HB290 mAb (rat anti-mouse DEC-205 monoclonal antibody) (antibody, V domains shown)
VH: EVKLVESGGGLVQPGGSLRLSCAASGFTFNDFYMNWIRQPPGQAPEWLGVIRNKGNGYTTEVNTSVKGRFTISRDNTQNILYLQMNSLRAEDTAIYYCARGGPYYYSGDDAPYWGQGVMVTVSS
VL: DIQMTQSPSFLSTSLGNSITITCHASQNIKGWLAWYQQKSGNAPQLLIYKASSLQSGVPSRFSGSGSGTDYIFTISNLQPEDIATYYCQHYQSFPWTFGGGTKLELK
notes: Full-length rat mAb from the ATCC hybridoma HB290; also called full-length HB290 mAb; NLDC-145
Q: Does B1 bind?
A: Result: binds
